The supplement of paper PMC10126150
± gives the standard deviation of the averaged measurements.

Tested on: ATP
Experiment: switch fluorescence ratio, 500 uM ATP over buffer (Cy3 cluster intensity, sum of 5 cycles each) (fold (ratio)); higher = stronger signal-on switching upon ATP binding; sequences stand for … in TCGTCGGCAGCGTCAGATGTGTATAAGAGACAGTTTTTTTTTTTTTTTTTTTTTTTTT…TC
Conditions: aptamer strand: ATP DNA aptamer (quencher-CACCTGGGGGAGTATTGCGGAGGAAGG + anchor), 100 nM annealed; ATP concentration: 500 uM
Procedure, shortened: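 Imaging in selection buffer was followed by imaging after 15 min with 500 uM ATP at 22 °C, for Cy3-labelled switching-strand clusters annealed to 100 nM quencher-labelled ATP aptamer on a modified Illumina MiSeq flow-cell. Five of these buffer/ATP cycles ran, separated by NaOH stripping and re-annealing. The fluorescence ratio per cluster is summed target-cycle over summed buffer-cycle Cy3 intensity, averaged per switch-domain sequence; clusters outside 100-1000 RFU were removed.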
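Note: ATP exposure 15 min at 22 °C before imaging.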

Sequence	switch fluorescence ratio
TGCTAGGTCA	0.969 ± 0.0059
GGTGGTGAGC	1 ± 0.026
CGTGAGGGGG	1.01 ± 0.012
GTTGGGGTTG	1.01 ± 0.025
AGAATAGGGT	0.9901 ± 0.0072
TGGGCGGCTT	0.97 ± 0.011
TTTCATTGGC	0.986 ± 0.028
TTCATATAGG	0.984 ± 0.021
TGTGCCTGTT	1.008 ± 0.0018
TATTTAGAGG	1.01 ± 0.079
ATGTGTCTTT	0.979 ± 0.03
TCGGTGAATT	1.01 ± 0.011
ACAGATGGAA	1.005 ± 0.0068
AATTGGGCGA	0.989 ± 0.026
CAACTTAGTC	0.988 ± 0.068
CACTAGGCGG	1.0232 ± 0.00067
AAAAAGGGGA	1 ± 0.032
GTTTACAGGC	0.9875 ± 0.0092
TCACTAGAGT	0.9722 ± 0.0053
TGATTGTGAA	1 ± 0.024
CAATTGGTTT	0.997 ± 0.016
AGGGAGGATT	0.965 ± 0.034
TGGTAATTAT	0.974 ± 0.023
CACTGGGGTT	0.988 ± 0.017
TGGTTTTAAT	0.973 ± 0.028

Sequence	switch fluorescence ratio
TTACATGTAA	0.996 ± 0.023
CTGGGGTAAT	1.028 ± 0.0095
TAAAACGCGG	1.07 ± 0.048
TTTTATTAGA	0.974 ± 0.065
GAAGAACTGG	0.991 ± 0.054
ATAGAGCTTT	1.07 ± 0.085
TTTATTTCCA	0.996 ± 0.03
TTTCGCTCTT	1.12 ± 0.25
CTGTTTAAGG	0.986 ± 0.013
ATACTTCATT	1.03 ± 0.032
ATCTCCGGGG	1.04 ± 0.016
ACGGGAAAAG	1.01 ± 0.035
TCGTAGGTAA	1.1 ± 0.12
TGCATTGGGG	1 ± 0.024
TAGTCCCCCC	1.21 ± 0.2
ATTGATGAGG	0.972 ± 0.012
TTAAAAGGAG	1.01 ± 0.044
GTAAGGGGCA	1.07 ± 0.047
TATTAGTTGG	0.971 ± 0.023
TTTCAGGTAA	0.988 ± 0.017
GGGAATGTT	0.992 ± 0.022
TATTTGAAAT	1.01 ± 0.039
TCAGGGGCGC	0.971 ± 0.031
TTTCTCAGTC	1 ± 0.039
TAAGGGTCCC	0.965 ± 0.016

Sequence	switch fluorescence ratio
ATTTGGTGAC	0.9987 ± 0.0042
TTCAATATGT	0.991 ± 0.049
GATTGCCGGT	1.01 ± 0.015
ACTTGGTACT	1.02 ± 0.018
TTGTGTTACG	0.996 ± 0.047
CCCCACGGCC	1.16 ± 0.028
TACACAGCGG	1.05 ± 0.045
TTTCAAACCT	1.57 ± 0.64
TTTTTTGGAG	1.01 ± 0.023
GGGTCAGACG	1.06 ± 0.086
GTTAGGCCTG	0.969 ± 0.013
AGCGGGTTG	1.02 ± 0.017
TCTGATGTTT	1.01 ± 0.021
ATGTGGTTGT	0.97 ± 0.019
TTACTCGCTG	1.07 ± 0.027
TTGACTGGAA	1.02 ± 0.011
TAGGTAGATG	1.02 ± 0.018
TCACAATTTA	0.9774 ± 0.0044
CCGGAGGTCG	0.958 ± 0.012
GTAATTTGCA	0.9986 ± 0.0055
AGTCGACTTT	0.997 ± 0.011
TTTGAACGTG	0.969 ± 0.017
ACGAACGGTA	1.37 ± 0.032
AGAGGTTTTT	0.989 ± 0.019
CGCTTAAGAG	1.02 ± 0.014

Sequence	switch fluorescence ratio
CGTTCCGGGG	1.03 ± 0.036
GATTTGCCGG	0.995 ± 0.013
TTTGGAAA	1.01 ± 0.033
AGGAGAATCT	1 ± 0.025
GTGGGTAAAG	0.975 ± 0.01
AAAACGATAT	1.046 ± 0.0062
GATTTTACTT	1.03 ± 0.015
AGCGCAAAAT	1.02 ± 0.069
ATGTTGCGGG	1 ± 0.041
CGTCAGGGGG	0.972 ± 0.027
GATTGTAGTT	0.9586 ± 0.0034
GGTTAATGGA	0.9833 ± 0.0035
ATATGGTCGT	0.998 ± 0.017
GACCATTGTT	1.01 ± 0.013
AATTTTACGG	1.07 ± 0.024
TTTGTCAGGG	0.992 ± 0.062
ATAGTCCTGG	0.963 ± 0.019
TGGTGCCCAC	1.01 ± 0.027
CGTATGAAGA	1.02 ± 0.016
AATATGGCGT	1.01 ± 0.029
AGGCATGATG	1.0051 ± 0.00033
GGGTTCTTGT	1.04 ± 0.057
TTAACGGGCT	1.01 ± 0.048
GATCCATACT	1.06 ± 0.042
ACTGGGGTGT	1.07 ± 0.0045

Sequence	switch fluorescence ratio
GGGGTAATGG	0.993 ± 0.034
TTTGGCGAGT	1.01 ± 0.021
CAGTTGTGTG	0.994 ± 0.034
GATATGAGGG	1.029 ± 0.0037
AAAGAGGGTG	1.1 ± 0.058
TTTGTATTCA	1.01 ± 0.06
AGTTTGGGGA	0.979 ± 0.015
TGAGAAGGGG	0.991 ± 0.041
ATTAGGCAAT	1.22 ± 0.061
ATAAGCGAAG	0.993 ± 0.028
TGTTTGGTTG	1.01 ± 0.017
GACCGCTGGT	0.996 ± 0.039
TTATGTGGTG	0.974 ± 0.014
GCCAAAGATT	1 ± 0.029
CGTTTTTATG	1.03 ± 0.04
TATATTTAAG	1.01 ± 0.03
TGAGAGGCGA	1.01 ± 0.011
TTTTGTATAA	1.02 ± 0.02
CTCGTTTGAT	1 ± 0.026
TTTTGGCCAA	1.01 ± 0.041
AGGGGGGAAA	1.01 ± 0.027
CTTGGCGGGC	1.01 ± 0.04
TGGCGGGGGG	0.994 ± 0.035
GCTAGAAAGA	0.972 ± 0.0073
GGGTCGGGGG	0.994 ± 0.04

Sequence	switch fluorescence ratio
TATGGATCTA	0.986 ± 0.048
AGTTTTGCGC	0.972 ± 0.034
TACAATTTTT	1.01 ± 0.028
ACGTTGCGAG	0.994 ± 0.015
TCAGGTGTTT	1.56 ± 0.51
TAAAAACTGT	1.02 ± 0.034
TGGAAAGAAG	1.02 ± 0.064
TGATTTGCGA	0.987 ± 0.02
GCTATACAGC	1.03 ± 0.049
CGGCCAATAA	3.19 ± 0.12
AAGGTAGTCT	1 ± 0.024
TTTGTTGATT	0.973 ± 0.022
AATTGAGTGG	1.009 ± 0.0077
CTGAATTTCA	0.9833 ± 0.0017
TTTTTTTAAA	0.999 ± 0.027
CTTAAAGTGC	1.05 ± 0.069
GGGAAGTTGG	0.986 ± 0.013
CGTGATTAAG	1.09 ± 0.17
ATACATTTGG	0.999 ± 0.014
AGAGGGCATG	0.987 ± 0.026
TGTTTGGGGT	0.996 ± 0.055
ATCGGGTGCG	0.981 ± 0.022
TCAGTAAATG	0.969 ± 0.038
TTTGGATAGA	0.998 ± 0.025
ATATTAGGGA	1 ± 0.0079

Sequence	switch fluorescence ratio
TGTTTAGGGG	1.01 ± 0.025
TTTTGCTCGT	1.14 ± 0.2
CATCGGTATA	1.06 ± 0.017
TTGTAAAA	0.95579 ± 0.00088
TTTACGGAGA	1.03 ± 0.041
AGGTATACCT	1.014 ± 0.0028
GGATTACCCA	1.04 ± 0.021
ATGTGATTTG	0.985 ± 0.035
ACATGACAGA	1.08 ± 0.038
CTTCATGGTC	0.96 ± 0.017
GATCCTACGG	0.972 ± 0.048
TGTGTTAGGG	0.979 ± 0.049
TGGCTGCAGA	0.972 ± 0.064
GTTGATGGGG	0.984 ± 0.047
GGGCCAGGGA	1 ± 0.024
AGCGGGGCGC	1.01 ± 0.069
GAGGTCCACT	1.01 ± 0.044
TCGTGCGCTG	0.997 ± 0.079
GGCCAACCCG	1.0157 ± 0.00094
ACGGGCTAGG	1.01 ± 0.027
CCGGGGGACA	1.1 ± 0.17
GAGTTGTTAT	0.973 ± 0.037
GGGAAATAGC	1.06 ± 0.036
ACTAGGCTGG	1.01 ± 0.028
TGTGGTAGCC	1.022 ± 0.0018

Sequence	switch fluorescence ratio
ATAAGATATG	0.999 ± 0.012
AGGCAGGCGG	1.01 ± 0.073
AATGTGTTGG	0.984 ± 0.025
CATTCGGATG	1.01 ± 0.055
CAGCCTTATT	0.997 ± 0.029
AAAGTGTTGT	0.979 ± 0.039
GTTTTTGGGC	0.985 ± 0.026
CAGTGTGTGG	0.9696 ± 0.0024
GGTAGGCGAA	0.9775 ± 0.0013
CGAGTTGGTA	1.01 ± 0.025
AACTTTAACT	1.04 ± 0.014
ATTTGCAGTG	0.994 ± 0.021
TGAACTAAAT	1.01 ± 0.024
GACTCAAGTT	1.048 ± 0.0054
CGAGGAAGGG	1.01 ± 0.021
TGCTTAAGCA	0.982 ± 0.058
TGGTTTTGT	1.03 ± 0.066
TTTCATAGCA	1.283 ± 0.012
ATGCGAAGG	0.98 ± 0.038
TAATGTGCAA	1.09 ± 0.013
GTCGGGGTAC	0.997 ± 0.034
CCGTTTGTGC	1.21 ± 0.063
ATAGATAGCC	0.96 ± 0.015
AAGAGGTCTC	0.9681 ± 0.0023
TACGAACTTT	1.31 ± 0.06
